Values belong to the binder of their own block, whether it stands above or below them.
Target: T1, GPLD1-mCherry-sfGFP-His (glycosylphosphatidylinositol-specific phospholipase D1) (human, UniProt P80108 24-840)
T1 construct: glycosylphosphatidylinositol-specific phospholipase D1, human, full-length cDNA amplified from HepG2 cells; fusion of about 160 kD; also called GPLD1-RG; GPLD1-RFP-GFP; not shown: mCherry, C-terminal, kept; sfGFP, C-terminal, kept; His, C-terminal, kept
T1 sequence (looked up): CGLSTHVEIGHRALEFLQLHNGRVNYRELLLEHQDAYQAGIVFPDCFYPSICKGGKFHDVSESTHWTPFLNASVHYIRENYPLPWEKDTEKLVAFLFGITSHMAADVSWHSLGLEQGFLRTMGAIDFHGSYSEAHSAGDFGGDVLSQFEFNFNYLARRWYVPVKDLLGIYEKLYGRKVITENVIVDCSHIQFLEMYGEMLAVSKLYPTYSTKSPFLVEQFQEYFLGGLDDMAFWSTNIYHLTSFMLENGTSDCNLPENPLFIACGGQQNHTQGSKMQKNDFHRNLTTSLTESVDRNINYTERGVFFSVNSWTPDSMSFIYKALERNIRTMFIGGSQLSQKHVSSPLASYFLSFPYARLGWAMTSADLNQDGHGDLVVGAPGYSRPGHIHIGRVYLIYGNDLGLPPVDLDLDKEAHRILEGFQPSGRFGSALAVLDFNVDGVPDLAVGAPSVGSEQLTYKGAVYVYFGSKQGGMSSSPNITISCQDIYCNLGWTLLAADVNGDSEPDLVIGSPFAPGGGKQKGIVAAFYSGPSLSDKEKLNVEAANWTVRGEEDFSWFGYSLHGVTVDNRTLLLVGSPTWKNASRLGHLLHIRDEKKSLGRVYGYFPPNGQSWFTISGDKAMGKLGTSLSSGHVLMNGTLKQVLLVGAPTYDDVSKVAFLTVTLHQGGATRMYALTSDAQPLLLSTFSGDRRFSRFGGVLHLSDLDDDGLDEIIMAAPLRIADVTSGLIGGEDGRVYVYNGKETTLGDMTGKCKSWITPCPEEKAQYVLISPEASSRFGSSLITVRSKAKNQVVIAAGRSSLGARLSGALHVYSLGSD
Assay: co-IP; purified GPLD1-RG (40 nM) or clusterin-RG mixed with His-ALFA-SAA1 (500 nM) or ALFA-tagged Ab42 in PBS, 37°C with shaking for 2 h; aggregates removed at 20,000g; ALFA nanobody beads 2 h at 4°C; washed four times with PBS; immunoblot
Conditions: both partners purified

binding result: binds
B1: His-ALFA-SAA1-N terminus (human SAA1 19-94 aa) (domain or fragment, UniProt P0DJI8 19-94, looked up)
chain: RSFFSFLGEAFDGARDMWRAYSDMREANYIGSDKYFHARGNYDAAKRGPGGAWAAEVITDARENIQRFFGHGAEDS
notes: serum amyloid A1, human, residues 19-94; the N-terminal 76 aa residues, the core amyloidogenic fragment; Prepared in 8 M urea-denatured form for all experiments; aggregates on dilution into PBS; also called His-ALFA-tagged SAA1-N; source: E. coli BL21(DE3) pLysS, purified from inclusion bodies under denaturing conditions (8 M urea, Co-NTA); not shown: His, N-terminal, kept; ALFA, N-terminal, kept

binding result: binds
B2: His-ALFA-SAA1-Full length (human SAA1 19-122 aa) (natural protein, UniProt P0DJI8 19-122, looked up)
chain: RSFFSFLGEAFDGARDMWRAYSDMREANYIGSDKYFHARGNYDAAKRGPGGAWAAEVITDARENIQRFFGHGAEDSLADQAANEWGRSGKDPNHFRPAGLPEKY
notes: The purification of the native full-length form is not described in the methods (only SAA1-N and Ab42 from inclusion bodies); source: E. coli BL21(DE3) pLysS, recombinant, used native; not shown: His, N-terminal, kept; ALFA, N-terminal, kept

— paper PMC13241479, “GPLD1 is a scavenger carrier mediating lysosomal degradation of extracellular aberrant proteins” (Life Science Alliance, 2026)
